Source: the nanobody polyreactivity screen of Harvey et al. (2022)

Assay: yeast display, Sf9 membrane polyspecificity reagent, FACS + sequencing; frameworks hold sequencing errors
In short: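 After 36–48 hours of galactose induction, yeast (Saccharomyces cerevisiae BJ5465) displaying a synthetic nanobody library were stained at 4 °C for 1 hour with 10% biotinylated, detergent-solubilized Sf9 membrane reagent. Streptavidin microbeads enriched the stained cells before FACS sorting into low and high (top ~1%) gates on anti-HA and streptavidin fluorescence. Each clone's polyreactivity label reflects its gate of origin.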

| Sequence | polyreactivity (PSR sort gate) |
| --- | --- |
| QVQLVESGGGLVQAGGSLRLSCAASGSTFRHYAMGWYRQQPGKERELVAAISSRGGSTYYADSVKGRFTISRDNAKNTVYLQMNSLKPEDTAVYYCNVVGYLRPSYRHMDYWGQGTQVTVSS | high polyreactivity |
| QVQLVESGGGLVQAGGSLRLTCAASGSIFYVNAMGWYRQAPGKERELVAAISVRGGRTYYADSVKGRFTISRDNAKNTVYLQMNSLKPEDTAVYYCATRISTVGRYDYWGQGTQVTVSS | high polyreactivity |
| QVQLVESGGGLDQAGGSHRLSCAASGFTFSGYAMGWYRQAPGTESELVAAMTRRGGSTYYADSVKGRFTISRDNAKNTVYLHLNSLKPEDTAVYYCAADSGYPWELDYWGQGTQVTVSS | low polyreactivity |
| QVQLVESGGCLVQAGGSLRLSCAASGFTLTGNAMGWYRQAPGKERELVADISNSGGTTNYADSVKGRFTISRDNAKNTVYLQMNSLKPDDSAVYYCAADVSYRNIGLEYWGQGTQVTVSS | high polyreactivity |
| QVQLVESGGGLVQAGGSLRLSCAASGRILWFYAMGWYRQAPGKERELVAAITDSGGSTYYADSVKGRFTISRDNAKNTVYLQMNSLKPEDTAVYYCAADTYYEFQYYVILEYNYWGQGTQVTVSS | low polyreactivity |
| QVQLVESGGGLVQAGGSLRLSCAASGSIFNDNVMGWYRQAPGKERELVAGISRSGTRTYYADSVKGRFTISRDNAKNTVYLQMNSLKPEDTAVYSGAAAYGQARRYNGSQYGSWGQGTQVTVSS | high polyreactivity |
| QVQLVESGGGLVQAGGSLRLSCAASGGIFDFYAMGWYRQAPGKERELVAAIRYGGSSTYYADSVKGRFTISRDNAKNTVYLLLNSLKPEDTAVYYCAAEPFSWDTWVDYDYWGQGTQVTVSS | low polyreactivity |
| QVQLVESGGGLVQAGGSLRLSCAASGLIFRIYAMGWYRQAPGKETELVAAISNSGGYTYYADSVKGRFTISRDNAKNTVYLQMNSLKPEDTAVYYCAAELRLWPWRRFDYWGQGTQVTVSS | high polyreactivity |
| QVQLVESGGRLVQAGGSLRLSCAASGSNFETYDMGWYRQAPRKERELVAAITLSGGSTYYADSVKGRFTISRDNAKNTVYLQMNSLKPEDTAVYYCAADDSGVKVWEGDYWGQGTQVTVSS | low polyreactivity |
| QVQLVESGGGLVQAGGSLRLSCAASGRTFFLNTMGWYRQAPGKERELGAAINWSDGGTYYADSVKGRFTISRDIAKNTVYLQMNSLKPEDTAVYYCAADVYWYYGAPELWYRFDYWGQGTQVTVSS | low polyreactivity |
| QVQLVESGGGLVQAGGSLRLSCAASGGIFGYYAMGWYRQAPGKERELVAAISISGGRTYYADSVKGRFTISRDNAKNTVYLQMNSLKPEDTAVYYCKAARKVYVRGRGSEMDYWGQGTQVTVSS | low polyreactivity |
| QVQLVESGGGLVQAGGSLRLSCAASGRILYYSVMGWYRPAPGKERELVAAISSGGDTNYADSVKGRFTISRDNAKNSVYLQMNSLKPEDTAVYYCARGVDGILWTSEYDYWGQGTQVTVSS | low polyreactivity |
| QVQLVESGGGLVQAGGSLRLTCAASGRILRINTMGWYRQAPGKEMELVAAISLSGGTTYYAHSVKGRFTISRDNAKNTVYLQMNSVKPEDTAVYYCYKAIWYAEYDYWGQGTQVTVSS | low polyreactivity |
| QVQLVESGGGLVQAGGSLRLSCAASGSIFTSYAMGWYRQAPGKERELVAAISRSGARTYYADSVKGRFTISRDNAKNTVYLLMNCLKPEDTAVYYCAAVHWRTTGGYDYWGQGTQVTVSS | high polyreactivity |
| QVQLVESGGGLVQAGGSLRLSCAACGRTFRFYAMGWYRKAPGKERELVAAISKSGGSTYYADSVKGRFTISRDNEKNTVYLQMNSLKPEDTAVYYCAAQTYLYDYKYWGQGTQVTVSS | high polyreactivity |
| QVQLVESGGGLVQAGGSLRLSCAASGFTFYRYAMGWYRQAPGKERELVAAITSGGSTNYADSVKGRFTISRDNANNTVYLQMNSLKPEDTAVYYCNAGRYVRWWWYSPDDYWGQGTQVTVSS | high polyreactivity |

| Sequence | polyreactivity (PSR sort gate) |
| --- | --- |
| QVQLVESGGGLVQAGGSLRLSCAASGRTLFGNAMGWYRQAPGKERELVAAISRRGGSTSYADSVKGRFTISRDNAKNTVYLQMNSLKPEDTAVYYCAAAQGKYTGTHYPYDYWGQGTQVTVSS | high polyreactivity |
| QVHLVESGGGLVQAGGSLRLSCAASGRIFHYYMVWYTQAPGKERELVAVISSGDGTYYADSVKRRFTISRDNAKNTVYLQMNSLKPEDTAVYYCAADAPREYVDHYKYDDDYWGQGTQETVSS | low polyreactivity |
| QVQLVESGGGLVQAGGSLRLSCAASGSTFKVYAMGWYRQAPGKERELVAVISGGGRTNYADSVKGRFTISRDNAKNTVYLQMNSLKPEDTAVYYCAALGPYGSARRKYGYWGQGTQVTVSS | high polyreactivity |
| QVQLVESGGGLLQAGGSLRLSCAASGRIFTLYDMGWYRQAPGKERELDAAISNSAGSTYYADSVKGRFTISLDNAKNTVYLQMNSLKTEDTAGYYCARSFSYWGYRSVYYWGQGTQVTVSS | high polyreactivity |
| QVQIVESGGGLVQAGGSLRLSCAASGFTFLWYAMGWYRQAPGKERELVAAINSGGRTNYADSVKGRFTISRDNAKNTVYLQMNSLKPEDTAVYYCAKRRPLYAHPDDYWGQGTQVTVSS | low polyreactivity |
| QVQLVESGGGLVQAGGSLRLSSAASGRLFGLNALGWYRQAPGKERELVASSTYSGGSTYYADSVKGRFTISRDNAKNTVYLQMNSLKQEDTAVYYCAGDSWYYWYSTYDYWGQGTQETVSS | high polyreactivity |
| QVQLVESGGGLVQAGGSLRLSCAASGNTFYANTMGWYRQARTERELVAAITSGTYADSVKGRFTISRDNAKNTVYLQMNSLKPEDTAVYYCAREESLYVTDPGPSKLDYWGQGTQVTVSS | low polyreactivity |
| QVQLVESGGGLFQAGGSLRLSCADYGSTFRTYVMGWYRQAPGKESEFVAAITNGISTNYADSVKGRFTISRDNAKYTFYLQMNSLKPEDTAVYYCAARVRRGSTQAQYYYWGQGTQVTVSS | high polyreactivity |
| QVQLVESGGGLVQAGGSLRLSCAASGFIFRYYAMGWYRQAPGKERELVAAISWSGGSTYYADSVKGRFTISRDNAKNTVYLQMNSLKPEDTAVYYCAADRYAILFYAEDYWGQGTQVTVSS | low polyreactivity |
| QVQLVESGGVLVQAGGSLRLSCAASGRSFDENSMGWYRQAPGKERELVAAITGGDSTNYADSVKGRFTISRDNAKNTVYLQMNSLKPEDTAVYYCAKDQERVTKGRFYLLEYYWGQGTQVTVSS | low polyreactivity |
| QVQLVESGGVLDQAGGSLRLSCAASGRIYFNKAMGWYRPAPGKEWELVAAINAGGRTNYADSVKGRFTISRDNEKNTVFLHMTSLKQEDTSVYYCNADDNPVWEYDYWGQGTQVTVSS | low polyreactivity |
| QVQLVESGGGLVHAGGSLRLSCAASGFTFYYNDMGWYRQAPGKERELVAAIRWSGGNTYYADSVKGRFKISRDNAKNTVYLQMNSLKPEDTAVYYCSAGTQWYSQVYIYYYWGQGTQVTVSS | low polyreactivity |
| QVQLVESAGGLVQAGGSLRLSCAAYGSIFGFYAMGWYRQAPGKERELVAAIDSGDSTNYADSVKGRFTISRDNAKNTVYLQMNSLKPEDTAVYYCNAEAWWYFWFDYWGQGTQVTVSS | low polyreactivity |
| QVQLVESGGGLVQAGGSLRLSCAASGRIFSRYVRGWYRQAPGKEREFVASITWSGSSTYYADSVKGRFTISRDNAKNTVYLQMNSLKPEDTAVYYCAALGLLSPSPWGTHISEYDSWGQGTQVTVSS | low polyreactivity |
| QVQLVESGGGLVQAGGSLRLSCAASGSIFSTNGMGWYRQAPGKERELVAAISTGGRTYYADSVKGRFTISRDNAKNTVYLQMNSLKPEDTAVYYCAKRFGYRSTEILDYWGQGTQVTVSS | low polyreactivity |
